Source: the DeepSol protein solubility set

Test: soluble on expression in E. coli; label from the status in PepcDB or PDB records

MSPHPPQPHPPMPPMPPVTAPPGAMTPMPPVPADAQKLHQSTGNDACIKRLQQLNVEDGAKMYMKPTEPGKMGRPVDIQTNVFGIEVTKETTVHRFMVHAKADLTSTKEVTFTKKGKEDFVVQDRRDKCCNIFFLAVEKNPEFFKMKDGNQIVYDGQSTLYTTVNLFSELDANGTKSKVFQINGADTGNDDLKTLPCISLEIYAPRDNSITLSSENLGKRTADQNIEVNNREYTQFLELALNQHCVRETNRFGCFEHGKVYFLNATEEGFDQRDCVDVGDGKQLYPGLKKTIQFIEGPYGRGQNNPSLVIDGMKAAFHKEQTVIQKLFDITGQDPSNGLNNMTREKAAAVIKGLDCYSTYTNRKRHLRIEGIFHESATKTRFELPDGKTCSIAEYYADKYKISLQYPNANLVVCKDRGNNNYFPAELMTVSRNQRVTIPQQTGNQSQKTTKECAVLPDVRQRMIITGKNAVNITLENELLVALGIKVYSEPLMVQARELDGKELVYQRSVMSDMGKWRAPPGWFVKPATVPDLWAAYAVGNPGCRFSIGDVNQLVGMFIDSCKKKGMVIKPPCETGLYSTEKIMTQLEKVAASKCKYVLMITDDAIVHLHKQYKALEQRTMMIVQDMKISKANAVVKDGKRLTLENIINKTNVKLGGLNYTVSDAKKSMTDEQLIIGVGVSAPPAGTKYMMDNKGHLNPQIIGFASNAVANHEFVGDFVLAPSGQDTMASIEDVLQNSIDLFEKNRKALPKRIIIYRSGASEGSHASILAYEIPLARAIIHGYSKEIKLIFIVVTKEHSYRFFRDQLRSGGKATEMNIPPGIVLDNAVTNPACKQFFLNGHTTLQGTAKTPLYTVLADDCKAPMDRLEELTFTLCHHHQIVSLSTSIPTPLYVANEYAKRGRDLWGELTTKGPIEAKESQGERLKELTKEIGYKQTDLNQKRVNA
soluble on expression in E. coli: not soluble

MGSSHHHHHHSSGLVPRGSHMKNYARISCTSRYVPENCVTNHQLSEMMDTSDEWIHSRTGISERRIVTQENTSDLCHQVAKQLLEKSGKQASEIDFILVATVTPDFNMPSVACQVQGAIGATEAFAFDISAACSGFVYALSMAEKLVLSGRYQTGLVIGGETFSKMLDWTDRSTAVLFGDGAAGVLIEAAETPHFLNEKLQADGQRWAALTSGYTINESPFYQGHKQASKTLQMEGRSIFDFAIKDVSQNILSLVTDETVDYLLLHQANVRIIDKIARKTKISREKFLTNMDKYGNTSAASIPILLDEAVENGTLILGSQQRVVLTGFGGGLTWGSLLLTLEF
soluble on expression in E. coli: soluble

MGHHHHHHSHMIHIVQAKDKGQTARATKFLALDKCLPHRDFLQILEIEHDPSAPDYLEYDIEWLTILRATDDLINVTGRLWNMPESNGLHARWDYSATEEGMKEVLEKLNHDLKVPCNFSVTAACYDPSKPQTQMQLIHRINPQTTEFCAQLGIIDINVRLQKSKEEHHVCGEYEEQDDVESNDSGEDQSEYNTDTSALSSINPDEIMLDEEEDEDSIVSAHSGMNTPSVEPSDQASEFSASFSDVRILPGSMIVSSDDTVDSTIDREGKPGGTVESGNGEDLTKVPLKRLSDEHEPEQRKKIKRRNQAIYAAVDDDDDDAA
soluble on expression in E. coli: not soluble

MSVRATVVKRTISGGKGKISEYCDGTKAVFHYQALFPIEKHEKGQPLSLEKDAFKSIDDTRKPWPHGYGKPLEIVFGKKFQLPVFEQCLKTMLVDEISQFDVECIDLVQYPFVSKKLRDLVKPCDGKHSHAHTTHMCAASIAQGTGYEELDELMKNPRPLRFVFHLLQVFEPDQYVHDSWQLDEDDKLKSVEALRQKGNELFVQKDYKEAIDAYRDALTRLDTLILREKPGEPEWVELDRKNIPLYANMSQCYLNIGDLHEAEETSSEVLKREETNEKALFRRAKARIAAWKLDEAEEDLKLLLRNHPAAASVVAREMKIVTERRAEKKADSRVTYSKMFQP
soluble on expression in E. coli: not soluble

MRSANHSELSNALLAISQSLADRSQLTQTLDAVLTAARQMTLAKHGIIYVLDQTGQALIPSTAHHNDKTIVSHPWEALQIDSASENDPFNFAIRNGEVVLINELYKYKGYDCESIYQTEQTLGLKSENLLAWPLIDSESKTIGLLVLLDLNVIDNEAALTEFCRMAASNIRQAVWLEQ
soluble on expression in E. coli: not soluble

MAHHHHHHMALPRGMHLLLKIYLQKCRLRWLREALNCIRGMVSMRLVMASMGSTPVERHKGEVAPGAEGEDTHFWLDGSFAEAEEALRQFFEMIKFPLPQRFSFAEEIRRDMKKRYPHCGEEALKSEEDITVVDAAALFKCVDGYIAFLSTRSDVGIGNAE
soluble on expression in E. coli: not soluble

RYTNILVPVDSSDAAQAAFTEAVNIAQRHQANLTALYVVDDSAYHTPALDPVLSELLDAEAAHAKDAMRQRQQFVATTSAPNLKTEISYGIPKHTIEDYAKQHPEIDLIVLGATGTNSPHRVAVGSTTSYVVDHAPCNVIVIR
soluble on expression in E. coli: soluble
